Assay results: patent US20240254222A1 (Bayer, published 2024)

T1: Sema3C (R&D Systems) (Homo sapiens (Human), UniProt Q99985 21-751)
T1 sequence: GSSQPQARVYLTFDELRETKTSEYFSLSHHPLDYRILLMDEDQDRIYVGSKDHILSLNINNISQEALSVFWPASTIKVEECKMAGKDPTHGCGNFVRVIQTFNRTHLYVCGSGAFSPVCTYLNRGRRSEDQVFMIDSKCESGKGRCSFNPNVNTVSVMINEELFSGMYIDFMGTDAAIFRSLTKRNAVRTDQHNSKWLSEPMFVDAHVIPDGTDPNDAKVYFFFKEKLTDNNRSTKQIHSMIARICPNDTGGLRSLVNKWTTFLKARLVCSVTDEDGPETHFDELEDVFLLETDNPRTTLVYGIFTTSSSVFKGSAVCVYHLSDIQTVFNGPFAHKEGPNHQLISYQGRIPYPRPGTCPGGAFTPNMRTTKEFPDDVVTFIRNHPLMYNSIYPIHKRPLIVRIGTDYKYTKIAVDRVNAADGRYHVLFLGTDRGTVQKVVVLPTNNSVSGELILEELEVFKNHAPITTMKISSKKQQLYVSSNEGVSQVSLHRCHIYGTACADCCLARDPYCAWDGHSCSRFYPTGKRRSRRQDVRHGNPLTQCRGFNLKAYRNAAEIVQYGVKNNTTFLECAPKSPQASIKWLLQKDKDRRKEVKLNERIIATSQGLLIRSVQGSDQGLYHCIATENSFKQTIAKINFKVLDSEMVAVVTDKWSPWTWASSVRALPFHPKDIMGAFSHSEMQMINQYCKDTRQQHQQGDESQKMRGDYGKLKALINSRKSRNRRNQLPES

T2: Sema3D (R&D Systems) (Homo sapiens (Human), UniProt O95025 37-777)
T2 sequence: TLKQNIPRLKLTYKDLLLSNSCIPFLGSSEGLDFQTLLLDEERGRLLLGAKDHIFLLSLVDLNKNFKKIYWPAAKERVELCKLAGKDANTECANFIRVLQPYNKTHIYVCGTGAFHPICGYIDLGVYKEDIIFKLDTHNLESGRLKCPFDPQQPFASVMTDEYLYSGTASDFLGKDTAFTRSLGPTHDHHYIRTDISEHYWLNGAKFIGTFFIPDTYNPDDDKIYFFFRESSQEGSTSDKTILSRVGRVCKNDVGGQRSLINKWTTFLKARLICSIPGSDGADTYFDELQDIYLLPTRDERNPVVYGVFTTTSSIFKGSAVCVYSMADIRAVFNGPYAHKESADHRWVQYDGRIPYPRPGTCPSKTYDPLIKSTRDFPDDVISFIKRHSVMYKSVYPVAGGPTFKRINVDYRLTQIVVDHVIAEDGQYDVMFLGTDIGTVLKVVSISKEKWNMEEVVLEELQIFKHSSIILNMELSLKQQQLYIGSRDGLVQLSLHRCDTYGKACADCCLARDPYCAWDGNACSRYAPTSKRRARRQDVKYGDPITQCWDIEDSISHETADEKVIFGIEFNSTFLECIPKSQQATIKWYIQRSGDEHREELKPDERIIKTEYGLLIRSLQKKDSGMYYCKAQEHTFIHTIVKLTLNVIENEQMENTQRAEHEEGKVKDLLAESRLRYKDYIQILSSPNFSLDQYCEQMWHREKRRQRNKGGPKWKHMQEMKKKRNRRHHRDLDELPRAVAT

T3: Sema3B (R&D Systems) (Homo sapiens (Human), UniProt Q13214 25-749)
T3 sequence: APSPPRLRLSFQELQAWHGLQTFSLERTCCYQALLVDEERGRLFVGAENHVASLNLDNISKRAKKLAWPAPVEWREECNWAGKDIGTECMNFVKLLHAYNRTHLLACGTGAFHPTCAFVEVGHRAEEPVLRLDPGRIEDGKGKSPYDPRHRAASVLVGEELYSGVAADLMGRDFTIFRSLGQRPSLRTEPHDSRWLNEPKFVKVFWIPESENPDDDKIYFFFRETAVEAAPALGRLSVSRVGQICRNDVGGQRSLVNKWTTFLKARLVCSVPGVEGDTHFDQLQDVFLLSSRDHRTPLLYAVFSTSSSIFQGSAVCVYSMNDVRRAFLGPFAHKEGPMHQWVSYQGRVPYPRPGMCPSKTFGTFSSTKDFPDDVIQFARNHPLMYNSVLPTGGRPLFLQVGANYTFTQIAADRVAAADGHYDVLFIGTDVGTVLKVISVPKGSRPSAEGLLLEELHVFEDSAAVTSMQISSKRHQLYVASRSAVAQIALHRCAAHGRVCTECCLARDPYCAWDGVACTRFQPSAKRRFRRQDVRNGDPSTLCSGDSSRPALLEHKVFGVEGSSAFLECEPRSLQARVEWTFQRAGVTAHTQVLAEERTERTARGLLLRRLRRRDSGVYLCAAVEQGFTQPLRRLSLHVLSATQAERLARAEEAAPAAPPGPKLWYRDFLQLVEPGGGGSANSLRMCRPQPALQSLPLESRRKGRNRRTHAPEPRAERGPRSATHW

T4: Sema3E (R&D Systems) (Homo sapiens (Human), UniProt O15041 26-775)
T4 sequence: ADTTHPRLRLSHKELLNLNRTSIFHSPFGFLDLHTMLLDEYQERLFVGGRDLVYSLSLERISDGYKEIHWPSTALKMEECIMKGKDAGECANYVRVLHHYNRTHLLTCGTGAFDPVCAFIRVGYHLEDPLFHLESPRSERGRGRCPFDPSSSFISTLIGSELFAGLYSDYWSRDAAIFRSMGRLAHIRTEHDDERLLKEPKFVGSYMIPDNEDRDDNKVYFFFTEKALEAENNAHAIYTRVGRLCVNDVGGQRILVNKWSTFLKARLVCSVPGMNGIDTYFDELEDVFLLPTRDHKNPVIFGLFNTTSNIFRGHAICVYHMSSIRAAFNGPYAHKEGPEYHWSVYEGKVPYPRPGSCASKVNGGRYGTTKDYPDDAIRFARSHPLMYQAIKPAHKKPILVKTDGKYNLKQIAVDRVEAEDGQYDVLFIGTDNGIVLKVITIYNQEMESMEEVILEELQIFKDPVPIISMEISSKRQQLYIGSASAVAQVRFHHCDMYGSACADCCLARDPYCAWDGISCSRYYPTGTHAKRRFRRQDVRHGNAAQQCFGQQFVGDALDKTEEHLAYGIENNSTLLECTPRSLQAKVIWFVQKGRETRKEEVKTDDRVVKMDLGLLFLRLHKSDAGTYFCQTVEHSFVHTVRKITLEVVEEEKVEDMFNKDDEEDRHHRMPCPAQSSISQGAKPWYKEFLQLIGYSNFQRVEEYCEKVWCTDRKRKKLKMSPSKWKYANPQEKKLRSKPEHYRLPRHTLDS


How the values were obtained:
Experiment in all cases: ELISA
[1] = target: T1, Sema3C (R&D Systems)
[2] = target: T2, Sema3D (R&D Systems)
[3] = target: T3, Sema3B (R&D Systems)
[4] = target: T4, Sema3E (R&D Systems)

| binding result [1] | binding result [2] | binding result [3] | binding result [4] | Binder |
| --- | --- | --- | --- | --- |
| no binding | no binding | no binding | no binding | TPP-15370 (antibody, human IgG1, lambda, V domains shown, human IgG1; also called IgG1, hit from panning; parental mAb) VH: EVQLLESGGGLVQPGGSLRLSCAASGFTFSSYGMHWVRQAPGKGLEWVSAIGTGGDTYYADSVMGRFTISRDNSKNTLYLQMNSLRAEDTAVYYCARRDDYTSRDAFDVWGQGTLVTVSS VL: not shown |
| no binding | no binding | no binding | no binding | TPP-15374 (antibody, human IgG1, lambda, V domains shown, human IgG1; also called IgG1, hit from panning; parental mAb) VH: EVQLLESGGGLVQPGGSLRLSCAASGFTFSSYEMNWVRQAPGKGLEWVSGISWNSGSIGYADSVKGRFTISRDNSKNTLYLQMNSLRAEDTAVYYCARSGYSSSWFDPDFDYWGQGTLVTVSS VL: QSVLTQPPSASGTPGQRVTISCTGSSSNIGAGYDVHWYQQLPGTAPKLLIYGNSNRPSGVPDRFSGSKSGTSASLAISGLRSEDEADYYCSSYAGSNPYVVFGGGTKLTVLG |
